For assay [1], the target named is T1, ECF01_3473.
T1 chain: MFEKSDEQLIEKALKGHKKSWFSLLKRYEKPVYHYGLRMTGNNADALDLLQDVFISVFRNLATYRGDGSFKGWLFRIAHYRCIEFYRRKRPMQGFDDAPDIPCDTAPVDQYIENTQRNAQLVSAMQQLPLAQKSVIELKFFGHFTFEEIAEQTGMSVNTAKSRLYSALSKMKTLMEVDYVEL

The target of assay [2] is T2, ECF02_2817.
T2 chain: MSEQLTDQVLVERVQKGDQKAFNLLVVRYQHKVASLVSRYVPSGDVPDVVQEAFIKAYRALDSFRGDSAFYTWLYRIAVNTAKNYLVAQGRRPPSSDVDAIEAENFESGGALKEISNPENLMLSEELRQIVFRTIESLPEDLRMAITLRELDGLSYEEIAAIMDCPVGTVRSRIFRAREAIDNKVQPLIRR

For assay [3], the target named is T3, ECF02_915.
T3 chain: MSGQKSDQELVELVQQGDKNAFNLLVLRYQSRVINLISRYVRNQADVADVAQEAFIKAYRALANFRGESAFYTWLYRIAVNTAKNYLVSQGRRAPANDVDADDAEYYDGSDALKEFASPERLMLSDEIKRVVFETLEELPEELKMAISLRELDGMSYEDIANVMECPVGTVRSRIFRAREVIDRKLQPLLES

In assay [4] the target is T4, ECF03_1198.
T4 chain: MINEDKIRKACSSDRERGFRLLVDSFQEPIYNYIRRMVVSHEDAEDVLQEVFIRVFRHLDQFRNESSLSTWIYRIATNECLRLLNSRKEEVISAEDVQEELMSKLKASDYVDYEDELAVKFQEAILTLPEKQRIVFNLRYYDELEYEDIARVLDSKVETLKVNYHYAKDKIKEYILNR

Assay [5] has as its target T5, ECF03_1244.
T5 chain: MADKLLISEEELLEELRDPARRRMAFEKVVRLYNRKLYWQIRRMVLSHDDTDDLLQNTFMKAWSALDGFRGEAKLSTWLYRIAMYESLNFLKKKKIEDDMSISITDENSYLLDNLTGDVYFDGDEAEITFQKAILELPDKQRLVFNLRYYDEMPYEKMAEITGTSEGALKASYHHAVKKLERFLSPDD

Assay [6] deals with T6, ECF11_987.
T6 chain: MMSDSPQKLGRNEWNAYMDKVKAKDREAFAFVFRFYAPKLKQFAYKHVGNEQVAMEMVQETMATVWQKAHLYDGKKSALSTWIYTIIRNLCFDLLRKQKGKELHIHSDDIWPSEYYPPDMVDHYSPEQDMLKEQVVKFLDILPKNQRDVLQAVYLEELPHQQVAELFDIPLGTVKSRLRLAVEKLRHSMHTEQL

Assay [7] concerns the target T7, ECF12_807.
T7 chain: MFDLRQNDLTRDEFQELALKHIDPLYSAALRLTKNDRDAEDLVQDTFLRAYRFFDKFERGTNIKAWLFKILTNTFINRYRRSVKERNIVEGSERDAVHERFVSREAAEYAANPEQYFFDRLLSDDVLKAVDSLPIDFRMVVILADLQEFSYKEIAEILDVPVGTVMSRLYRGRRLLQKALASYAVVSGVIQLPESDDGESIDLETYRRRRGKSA

Assay [8] addresses T8, ECF16_973.
T8 chain: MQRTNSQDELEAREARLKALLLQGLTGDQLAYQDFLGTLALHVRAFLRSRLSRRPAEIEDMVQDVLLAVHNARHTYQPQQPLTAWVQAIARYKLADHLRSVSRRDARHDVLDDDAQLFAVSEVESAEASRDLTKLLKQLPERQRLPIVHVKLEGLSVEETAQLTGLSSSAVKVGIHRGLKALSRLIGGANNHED

Assay [9] deals with T9, ECF22_4450.
T9 chain: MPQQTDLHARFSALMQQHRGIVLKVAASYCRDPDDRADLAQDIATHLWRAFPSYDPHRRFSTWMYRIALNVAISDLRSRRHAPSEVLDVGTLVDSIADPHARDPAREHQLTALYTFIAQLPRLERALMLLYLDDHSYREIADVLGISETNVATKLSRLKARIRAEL

Assay [10] deals with T10, ECF25_1645.
T10 chain: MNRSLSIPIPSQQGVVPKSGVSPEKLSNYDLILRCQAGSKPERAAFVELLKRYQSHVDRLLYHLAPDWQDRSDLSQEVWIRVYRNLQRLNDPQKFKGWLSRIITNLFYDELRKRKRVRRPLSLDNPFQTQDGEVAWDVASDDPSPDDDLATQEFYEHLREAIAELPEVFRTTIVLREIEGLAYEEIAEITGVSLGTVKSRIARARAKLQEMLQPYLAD

Assay [11] addresses ECF26_4464.
For assay [12], the target named is T11, ECF27_4265.
T11 chain: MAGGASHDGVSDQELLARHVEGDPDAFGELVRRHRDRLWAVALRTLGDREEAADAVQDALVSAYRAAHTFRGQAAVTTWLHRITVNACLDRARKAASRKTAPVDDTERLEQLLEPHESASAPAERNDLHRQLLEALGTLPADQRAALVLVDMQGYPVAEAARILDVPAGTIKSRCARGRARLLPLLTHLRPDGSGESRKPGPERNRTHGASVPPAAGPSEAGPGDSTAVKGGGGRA

Assay [13] concerns the target T12, ECF30_35.
T12 chain: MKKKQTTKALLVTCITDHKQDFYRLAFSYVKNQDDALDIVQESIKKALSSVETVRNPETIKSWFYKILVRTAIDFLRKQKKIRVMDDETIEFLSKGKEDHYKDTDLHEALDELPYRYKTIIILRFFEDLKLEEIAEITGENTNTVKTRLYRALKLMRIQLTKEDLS

Assay [14] addresses T13, ECF34_1384.
T13 chain: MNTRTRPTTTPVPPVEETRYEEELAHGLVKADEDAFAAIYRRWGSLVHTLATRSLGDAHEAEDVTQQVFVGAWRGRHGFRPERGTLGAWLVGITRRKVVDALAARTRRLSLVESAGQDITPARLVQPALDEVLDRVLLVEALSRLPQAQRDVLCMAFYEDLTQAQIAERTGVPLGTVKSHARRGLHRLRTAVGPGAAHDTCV

B1: AS03_1198 (protein)
chain: MDKDFDFDNIGKRTPYRTPDNFFEETQRKILERTVDEQRKKRRLKRIIPTVIAVAAVLAGILFTPSLRYMNTDTPSASNILAVDKNNVTTDPVDKWIKELSDEELEELVSFSENDIFLN
On to B1, for which the fold repression in [1] turned out to be 2.38; in [2] it was 1.85; in [3], 2.43; in assay [4], 45.8; in assay [5] it was 1.36; in assay [6] it was 1.61. The fold repression was 1.43 in assay [7]; 1.49 in [8]; 1.2 in assay [9]; 0.816 in assay [10]; 1.48 in assay [11]; 0.852 in assay [12]. In addition, the results for the fold repression in assay [13] and in assay [14] were 1.17 and 0.959, respectively.

B2: AS11_987 (protein)
chain: MNKHPDNNLLEAYASGSIDAVSGLVVATHLETCSKCRAYVNQVEASQANTVSESPSEYSPEFDDMLNDIINAEPVNDNVVIQDTAFVNVAGKSFELPKTLVRFSDLVGSWRSYGGKVFSAQIDLGEDARVSLMYIGENVQIPQHTHRGLESTLVLHGGFSDEDGQYEEGDLMVRDASVKHSPFTQEGEDCLCLTVLTEPMIFTQGVARIFNLFGKGLYP
In the case of B2, the fold repression worked out at 4.16 in [1]; 3.07 in assay [2]; 3.1 in [3]; 2.32 in assay [4]; 2.2 in assay [5]; 77.4 in assay [6]. Further, the fold repression in assay [7] is 4.25; in [8], 2.76; in assay [9] it was 5.44; in assay [10], 2.46; in assay [11], 2.97; in assay [12], 2.05. Besides, the fold repression was found to be 2.89 in [13] and 2.37 in assay [14].

B3: AS03_1244 (protein)
chain: MKQFDPDVNIRPKEDSIRHYSVPDDYFASFTDKLMAQIPAVKEENTVVVPSVALWPKLRPLLYLAASFLLMIGMFKAFSLFGVGSDTGRTTSTSAGLVALDHGDTRWSEDTDYRDFLHDNCAETVSDEWVLTDFSE
Turning to B3, the fold repression in [1] was found to be 2.13; in [2] it was 1.96; in assay [3], 2; in assay [4], 2.13; in assay [5] it was 60.8; in assay [6], 2.14. Also, the fold repression was found to be 3.08 in assay [7]; 1.79 in assay [8]; 2.49 in assay [9]; 1.37 in assay [10]; 2.21 in assay [11]; 1.61 in assay [12]. The fold repression turned out to be 1.54 in assay [13] and 1.65 in assay [14].

B4: AS01_3473 (protein)
chain: MSNYDNAELLALWLEGKLTPKQRDEFEQRCIQDSQFAEQVDAAAMVKIGADDYSSSEVPQWNKAATFEPQQANNSGSWLSGVSLVTSALAIVLVLTGTQVTTSEGELRIRFGSGQSEQALVKLVDSKLDAFKQNQQDAFTLYAQTLQQQQSESASQLTNYLLSSSRKERREDFAELIKFVNQQRSDDQLFYARQLNQLQQDVYHDATGVALESIQQ
Regarding B4, the fold repression amounted to 13 in [1]; 2.1 in assay [2]; 2.34 in [3]; 1.5 in assay [4]; 1.39 in assay [5]; 1.52 in [6]. Also, the fold repression stood at 3.57 in assay [7]; 1.49 in assay [8]; 1.97 in assay [9]; 0.81 in [10]; 2.22 in assay [11]; 1.92 in assay [12]. In addition, the fold repression in [13] was determined as 1.56; in assay [14], 1.64.

B5: AS04_1609 (protein)
chain: MNRTTEQRNAEVMKTIGLLDQMPRVEVDHLFRVRLMQRIEAMEVKKTSWSALPGGAFNPRLAFMALLLMLNIASALMLFMHGTPQATGSSGAIAESLTEDYGGPALSYYDDQTTIDR
Regarding B5, the fold repression in [1] is 4.75; in assay [2], 2.53; in assay [3] it was 2.99; in assay [4], 6.14; in [5], 4.39; in [6], 6.21. In addition, the fold repression in assay [7] was determined as 5.09; in assay [8], 6.3; in assay [9] it was 9.53; in [10], 1.06; in assay [11] it was 6.23; in assay [12] it was 3.11. The fold repression worked out at 1.99 in assay [13] and 2.28 in assay [14].

B6: AS14_1324 (protein)
chain: MSGSRPEPEGHLAEQHLGDRLSALVDGELGHDARERVLAHVATCPKCKAEVDAQRRLKNVFAEAAPPAPSESFLARLQGLPGGGDSDGGGSPFSGLPGGFGASAASGVFGPRRDERFEFDYVPAGSHTPVLPSATSGRGFRIHEVGRHESDRSASRGLRFAFAAAGAVSLAAIALGGVTLGTPDTTTEARGSGSGSNVTPLRTPGSAAATGSESQRRRTAGPLLGQGQRALGDLPVASTTASAPLLPGMPAPAGGDARQQAVRALTTPVTAGAAAMSPLIRPLEAVPPLSLSSWSAAPEVRPPGLLAAPDPAPSPYPAASPAASSSPLR
With B6, the fold repression in assay [1] was 8.34; in assay [2], 2.97; in assay [3] it was 2.86; in [4], 3.58; in assay [5] it was 3.13; in [6] it was 6.84. Also, the fold repression in assay [7] was found to be 8.92; in [8], 4.45; in [9] it was 8.4; in [10], 3.18; in assay [11] it was 15.9; in [12], 2.31. Also, the fold repression in assay [13] came to 3.36; in [14] it was 2.76.

The values above are taken from PMC3817407.
